Experimental data taken from patent publication US20100322950.

Tests used:
[1] = tested on: recombinant human osteopontin (OPN), full-length
[2] = biological target: tissue inhibitor of matrix metalloproteinase-1 (TIMP-1) (UniProt P01033)
tissue inhibitor of matrix metalloproteinase-1 (TIMP-1), sequence (P01033 24-207): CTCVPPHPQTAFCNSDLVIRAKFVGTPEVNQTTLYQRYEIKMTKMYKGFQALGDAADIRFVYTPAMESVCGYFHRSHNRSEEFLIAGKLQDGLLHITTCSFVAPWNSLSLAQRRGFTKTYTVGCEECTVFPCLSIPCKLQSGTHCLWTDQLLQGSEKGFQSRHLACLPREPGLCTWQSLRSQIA

human matrix metalloproteinase-9 (MMP-9) (Calbiochem), sequence (chain, as listed by the source): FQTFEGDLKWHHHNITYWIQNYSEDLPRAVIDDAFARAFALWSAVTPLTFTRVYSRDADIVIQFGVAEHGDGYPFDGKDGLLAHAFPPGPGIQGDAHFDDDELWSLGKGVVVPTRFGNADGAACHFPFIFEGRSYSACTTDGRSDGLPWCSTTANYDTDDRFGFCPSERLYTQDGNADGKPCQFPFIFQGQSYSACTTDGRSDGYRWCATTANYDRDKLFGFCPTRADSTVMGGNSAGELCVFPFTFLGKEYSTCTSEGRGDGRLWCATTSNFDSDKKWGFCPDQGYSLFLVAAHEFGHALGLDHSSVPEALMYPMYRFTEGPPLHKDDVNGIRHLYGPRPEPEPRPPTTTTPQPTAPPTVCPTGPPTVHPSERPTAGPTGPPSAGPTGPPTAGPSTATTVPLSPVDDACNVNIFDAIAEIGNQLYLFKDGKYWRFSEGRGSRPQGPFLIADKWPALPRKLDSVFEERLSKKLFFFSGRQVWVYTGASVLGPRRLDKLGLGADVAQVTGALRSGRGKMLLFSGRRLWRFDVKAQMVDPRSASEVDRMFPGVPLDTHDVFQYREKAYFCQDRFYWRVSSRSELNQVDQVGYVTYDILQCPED
recombinant human osteopontin (OPN), full-length, sequence (chain, as listed by the source): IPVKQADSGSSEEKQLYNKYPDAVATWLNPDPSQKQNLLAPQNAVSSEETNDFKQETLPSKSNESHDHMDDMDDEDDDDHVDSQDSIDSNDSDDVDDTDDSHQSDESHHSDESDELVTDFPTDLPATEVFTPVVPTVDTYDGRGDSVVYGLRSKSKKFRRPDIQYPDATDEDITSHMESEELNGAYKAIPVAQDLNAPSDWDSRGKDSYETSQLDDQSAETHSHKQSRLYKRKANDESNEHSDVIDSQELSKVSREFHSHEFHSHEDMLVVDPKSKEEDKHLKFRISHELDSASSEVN

human matrix metalloproteinase-9 (MMP-9) (Calbiochem)
in vitro proteolytic cleavage of OPN (SDS-PAGE, N-terminal microsequencing, western blot) [1]: Recombinant MMP-9 cleaved OPN at two predominant sites in vitro, residues 166 and 210, resulting in 4 identified fragments
MMP-9 cleavage of OPN (formation of the OPN-5 kD fragment), TIMP-1 added to the reaction [2]: could not be detected in cleavage reactions partially inhibited by the concomitant addition of EDTA, a naturally-occurring inhibitor of MMP-9 (tissue inhibitor of matrix metalloproteinase-1, or TIMP-1), or the hydroxamate MMP-9 inhibitor I
